According to patent US6436654B1, “Methods for identifying compounds that modulate HIF-1α” (Pharmacia & Upjohn AB, priority 1998, dated 2002):

How the values were obtained:
[1] = test system: GAL4 responsive reporter plasmid; experiment: Cotransfection of GAL4-HIF-1α fusion proteins with GAL4 responsive luciferase reporter; assay type: cell-based, simian; conditions: for stimulation of GAL4 reporter activity by coexpressed CBP / stimulation of GAL4 reporter activity by coexpressed SRC-1: hypoxic conditions, vs hypoxia without exogenous coactivator; for GAL4 reporter transcriptional activity (in words): with or without CBP / SRC-1
Source text: To analyze functional activities of HIF-1α independently of the endogenous DNA binding and dimerization domains and the Arnt partner, we next fused HIF-1α to the heterologous DNA binding domain of GAL4. Functional activity of the fusion protein was monitored in COS7 cells by a cotransfection assay using a reporter gene construct carrying five GAL4 DNA binding elements in front of thymidine kinase promoter and the luciferase gene. Six hours after transfection media was changed, and cells were either left uninduced or exposed to 1% oxygen for 30 h prior to harvest. In the presence of either empty expression vector or a vector expressing the minimal GAL4 DNA binding domain, reporter gene activity was unaltered by reduced oxygen levels. […] The GAL4 DNA binding domain is known to harbor an NLS motif capable of taking fusion proteins to the nucleus (Ma and Ptashne (1987) Cell 51, 113-119). We therefore used antibodies directed against the DNA binding domain of GAL4 to examine in both normoxic and hypoxic cells the intracellular localization of the GAL4-HIF-1α fusion protein by immunofluorescence.
Transcriptional activity of GFP and GAL4 fusion constructs was analyzed in a cotransfection assay where effector plasmids (0.2 μg/30-mm dish) together with a reporter gene (1.5 μg/30-mm dish) were introduced into COS7 or HeLa cells. The reporter plasmid encoded firefly luciferase gene under the control of thymidine kinase minimal promoter and either five or three copies of GAL4 or HIF-responsive elements, respectively.

GST/Ref-1 = GST/Ref-1 (Homo sapiens, UniProt P27695); experiment: Pull-down of [35S]methionine-labeled GAL4/HIF proteins with GST/Ref-1; assay type: binding; conditions: presence or absence of diamide
Experimental: The precise mechanism by which Ref-1 activates HIF-1α is not known. […] To further investigate whether Ref-1 could interact with HIF-1α, we tried to trap the interaction by using a crosslinking reagent such as diamide, which oxidizes cysteine sulfhydryls to disulfides. A series of experiments was performed with GST-tagged purified Ref-1. [^35S]methionine-labeled in vitro translated GAL4/HIF 1-826 was incubated with GST/Ref-1 in the presence or absence of diamide.
Next, we tried a series of pull-down experiments with [^35S]methionine-labeled in vitro translated GAL4/HIF […] and GAL4/HIF 531-584. […] An interaction between GAL4/HIF […] and GST/Ref-1 was also detected, and this interaction was enhanced in the presence of diamide. In excellent agreement with this observation the C-TAD contains two cysteine residues. […] Immunoblot analysis verified that the input concentrations of GST/Ref-1 or GST alone were similar.

Chain of GST/Ref-1 (P27695 whole entry, species assumed, the tested form may be a part): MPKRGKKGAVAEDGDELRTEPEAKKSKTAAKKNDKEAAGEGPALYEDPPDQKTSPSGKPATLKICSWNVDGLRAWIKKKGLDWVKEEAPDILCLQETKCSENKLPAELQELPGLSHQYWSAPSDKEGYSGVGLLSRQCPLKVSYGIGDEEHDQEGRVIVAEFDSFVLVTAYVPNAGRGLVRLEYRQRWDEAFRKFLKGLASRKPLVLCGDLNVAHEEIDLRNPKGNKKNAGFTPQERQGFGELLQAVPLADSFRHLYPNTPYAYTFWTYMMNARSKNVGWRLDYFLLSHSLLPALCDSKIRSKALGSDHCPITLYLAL

| hypoxia-dependent activation of GAL4 reporter gene activity ([1]; 1% O2 vs normoxia, no exogenous coactivator) | stimulation of GAL4 reporter activity by coexpressed CBP [1] [fold] | stimulation of GAL4 reporter activity by coexpressed SRC-1 [1] [fold] | binding to GST/Ref-1 (in words) (GST/Ref-1) | stimulation of hypoxia-dependent activation response by p300ΔHAT ([1]; absence of SRC-1, hypoxia) [fold] | Molecule | GAL4 reporter transcriptional activity (in words) [1] | regulation by Ref-1 and the coactivators (in words) ([1]; Ref-1, CBP and SRC-1) |
| --- | --- | --- | --- | --- | --- | --- | --- |
| about 2 fold | 29 | 17 | detected | – | GAL4/HIF 776-826: GAL4 fusion containing the carboxy-terminal transactivation domain of HIF-1α (SEQ ID NO: 14) (protein) MKLLSSIEQACDICRLKKLKCSKEKPKCAKCLKNNWECRYSPKTKRSPLTRAHLTEVESRLERLEQLFLLIFPREDLDMILKMDSLQDIKALLTGLFVQDNVNKDAVTDRLASVETDMPLTLRQHRISATSSSEESSNKGQRQLTVSSDLACRLLGQSMDESGLPQLTSYDCEVNAPIQGSRNLLQGEELLRALDQVN | – | – |
| – | – | – | – | – | GAL4/HIF 526-641: GAL4 fusion with N-terminal transactivation domain and proposed inhibitory sequence (protein) MKLLSSIEQACDICRLKKLKCSKEKPKCAKCLKNNWECRYSPKTKRSPLTRAHLTEVESRLERLEQLFLLIFPREDLDMILKMDSLQDIKALLTGLFVQDNVNKDAVTDRLASVETDMPLTLRQHRISATSSSEESSNKGQRQLTVSDMVNEFKLELVEKLFAEDTEAKNPFSTQDTDLDLEMLAPYIPMDDDFQLRSFDQLSPLESSSASPESASPQSTVTVFQQTQIQEPTANATTTTATTDELKTVTKDRMEDIKILIAS | complete abrogation of the effect of CBP and SRC-1 | – |
| – | 11 | 1.5 | bound GST/Ref-1 | 2 | GAL4/HIF 531-584: GAL4 chimeric protein spanning the N-terminal transactivation domain of HIF-1α (SEQ ID NO: 13) (protein) MKLLSSIEQACDICRLKKLKCSKEKPKCAKCLKNNWECRYSPKTKRSPLTRAHLTEVESRLERLEQLFLLIFPREDLDMILKMDSLQDIKALLTGLFVQDNVNKDAVTDRLASVETDMPLTLRQHRISATSSSEESSNKGQRQLTVSFKLELVEKLFAEDTEAKNPFSTQDTDLDLEMLAPYIPMDDDFQLRSFDQLSPLE | – | – |
| – | – | – | – | – | GAL4/HIF 776-813: GAL4 fusion of C-terminal transactivation domain lacking 13 most carboxy-terminal amino acids (SEQ ID NO: 15) (protein) MKLLSSIEQACDICRLKKLKCSKEKPKCAKCLKNNWECRYSPKTKRSPLTRAHLTEVESRLERLEQLFLLIFPREDLDMILKMDSLQDIKALLTGLFVQDNVNKDAVTDRLASVETDMPLTLRQHRISATSSSEESSNKGQRQLTVSSDLACRLLGQSMDESGLPQLTSYDCEVNAPIQGSRNLL | completely abrogated | showed no regulation by Ref-1 and the coactivators |
